Experimental findings from publication PMC4522616 (Emerging Microbes & Infections, 2015) are described below.

For assay [1], the target named is JR-FL Env on pseudovirions (HIV-1 JR-FL (clade B), UniProt Q75760, strain). Kind of assay: virus capture assay.
In assay [2] the target is gp120 of HIV-1 93MW965 (clade C) (HIV-1 group M subtype C, isolate …, strain). Kind of assay: BLI.
Assay [3] concerns the target gp120 of HIV-1 JR-FL (clade B) (HIV-1). Briefly: BLI.
For assay [4], the target named is gp120 of HIV-1 96ZM651 (clade C) (HIV-1 group M subtype C, isolate 96ZM651, strain). Briefly: ELISA.
Assay [5] concerns the target gp120 of HIV-1 BaL (clade B) (HIV-1 group M subtype B, isolate BaL …, UniProt Q2MKA8, strain). Kind of assay: ELISA.
Assay [6] addresses T1, C4 peptide VGKAMYAPPIRGQIR (gp120 residues 430 to 444, HXB2 numbering) (HIV-1).
T1 chain: VGKAMYAPPIRGQIR
Briefly: crystal structure.

B1: rabbit monoclonal antibody R56 (antibody, V domains shown)
VH: QSLEESGGDLVQPGASLTLTCKASGFSFGNNYDMCWVRQAPGKGLEWIGCIETGSSDSAAYATWAKGRFTISKTSSTTVTLQMTSLTAADTATYFCARNFDLWGPGTLVIVSS
VL: QVLTQTPSSVSTAVGSAVTINCQSSQNVYSNNNLAWFQQKPGQPPRLLIYDASKLASGVPSRFKGSGSGTQFTFTISDVQCDDAATFYCLGGYDCSSGDCAAFGGGTEVVVR
On to B1, for which the binding result in assay [1] was “binds”.

B2: rabbit monoclonal antibody R53 (antibody, V domains shown)
VH: QSLEESGGGPVKPGGTLTLTCKASGIDFSSFYYMCWVRQAPGKGLEWIACIVTDITGESYYATWAKGRFAISKTSSTTVTLQMTSLTAADTATYFCARGDTYGYGDTVYALNLWGPGTLVTVSS
VL: GPVLTQTPPSASEPVGGTVTIKCQASQAIDEYLGWYQQKPGQRPKLLMYYASTLASGVPSRFKGSGSGTQFTLTISDLECADAATYYCQNYYVGSSTNYAFTFGGGTEVVVK
On to B2, for which, in assay [2], the Kd is 3.98 nM, the koff worked out at 0.00121 s⁻¹ and the on-rate constant (kon) worked out at 304000 M⁻¹ s⁻¹. In assay [3], the Kd came out at 1.96 nM, the koff was 0.000309 s⁻¹ and the kon was found to be 157000 M⁻¹ s⁻¹. Also, the binding result in assay [4] is listed as “binds”. Besides, the binding result in assay [5] was “binds”.

B3: R53 antigen-binding fragment (Fab) (Fab, V domains shown)
VH: QSLEESGGGPVKPGGTLTLTCKASGIDFSSFYYMCWVRQAPGKGLEWIACIVTDITGESYYATWAKGRFAISKTSSTTVTLQMTSLTAADTATYFCARGDTYGYGDTVYALNLWGPGTLVTVSS
VL: GPVLTQTPPSASEPVGGTVTIKCQASQAIDEYLGWYQQKPGQRPKLLMYYASTLASGVPSRFKGSGSGTQFTLTISDLECADAATYYCQNYYVGSSTNYAFTFGGGTEVVVK
For B3, in assay [6], the binding result was “binds”.
